Measurements taken from patent US20180244758A1 (MAPP BIOPHARMACEUTICAL, published 2018).

T1: MARV GP (Marburg virus (MARV), UniProt P35253 19-637)
T1 sequence: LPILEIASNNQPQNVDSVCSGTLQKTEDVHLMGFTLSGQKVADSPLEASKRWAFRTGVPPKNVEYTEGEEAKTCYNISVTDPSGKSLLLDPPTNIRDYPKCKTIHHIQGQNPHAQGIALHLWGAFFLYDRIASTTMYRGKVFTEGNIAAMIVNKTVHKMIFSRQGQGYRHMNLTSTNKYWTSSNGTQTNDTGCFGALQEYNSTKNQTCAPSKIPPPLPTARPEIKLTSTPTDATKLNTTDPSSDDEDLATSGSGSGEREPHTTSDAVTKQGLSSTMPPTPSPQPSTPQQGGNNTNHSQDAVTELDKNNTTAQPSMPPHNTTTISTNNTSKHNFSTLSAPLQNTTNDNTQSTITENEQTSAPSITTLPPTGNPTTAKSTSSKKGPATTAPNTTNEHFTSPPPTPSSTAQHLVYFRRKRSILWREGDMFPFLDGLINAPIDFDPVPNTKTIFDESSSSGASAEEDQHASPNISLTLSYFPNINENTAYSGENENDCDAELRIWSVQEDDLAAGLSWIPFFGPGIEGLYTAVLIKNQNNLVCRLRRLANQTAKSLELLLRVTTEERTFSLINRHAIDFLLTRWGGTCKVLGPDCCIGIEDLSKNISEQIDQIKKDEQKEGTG

T2: sGP (UniProt P60170 33-324)
T2 sequence: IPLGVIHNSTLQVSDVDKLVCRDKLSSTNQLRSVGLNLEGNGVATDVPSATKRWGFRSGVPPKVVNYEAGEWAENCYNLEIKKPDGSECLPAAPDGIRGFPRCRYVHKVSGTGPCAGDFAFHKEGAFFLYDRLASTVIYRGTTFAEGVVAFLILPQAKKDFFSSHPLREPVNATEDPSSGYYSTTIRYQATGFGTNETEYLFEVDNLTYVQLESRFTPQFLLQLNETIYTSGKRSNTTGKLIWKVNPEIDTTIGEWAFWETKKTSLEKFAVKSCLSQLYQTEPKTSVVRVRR

T3: RESTV GP on rVSV particles (Reston virus (RESTV), UniProt Q66799 34-677)
T3 sequence: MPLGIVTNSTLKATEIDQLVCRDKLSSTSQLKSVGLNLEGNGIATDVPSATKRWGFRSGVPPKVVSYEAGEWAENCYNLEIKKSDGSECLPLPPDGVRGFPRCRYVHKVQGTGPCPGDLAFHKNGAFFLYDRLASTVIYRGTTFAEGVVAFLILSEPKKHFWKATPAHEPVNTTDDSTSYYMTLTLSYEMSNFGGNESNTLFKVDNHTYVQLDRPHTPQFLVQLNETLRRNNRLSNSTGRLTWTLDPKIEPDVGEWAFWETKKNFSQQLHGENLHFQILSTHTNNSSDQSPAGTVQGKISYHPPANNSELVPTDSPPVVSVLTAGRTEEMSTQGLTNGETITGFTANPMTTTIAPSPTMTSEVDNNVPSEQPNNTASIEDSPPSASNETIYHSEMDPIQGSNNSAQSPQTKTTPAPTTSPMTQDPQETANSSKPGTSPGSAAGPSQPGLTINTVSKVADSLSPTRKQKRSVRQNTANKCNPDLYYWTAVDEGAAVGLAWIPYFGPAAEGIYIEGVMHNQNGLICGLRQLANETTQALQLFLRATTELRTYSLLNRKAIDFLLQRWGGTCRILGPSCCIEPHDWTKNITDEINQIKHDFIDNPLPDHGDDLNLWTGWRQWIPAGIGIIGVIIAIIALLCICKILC

T4: EBOV GP on rVSV particles (Ebola virus (EBOV), UniProt Q05320 33-676)
T4 sequence: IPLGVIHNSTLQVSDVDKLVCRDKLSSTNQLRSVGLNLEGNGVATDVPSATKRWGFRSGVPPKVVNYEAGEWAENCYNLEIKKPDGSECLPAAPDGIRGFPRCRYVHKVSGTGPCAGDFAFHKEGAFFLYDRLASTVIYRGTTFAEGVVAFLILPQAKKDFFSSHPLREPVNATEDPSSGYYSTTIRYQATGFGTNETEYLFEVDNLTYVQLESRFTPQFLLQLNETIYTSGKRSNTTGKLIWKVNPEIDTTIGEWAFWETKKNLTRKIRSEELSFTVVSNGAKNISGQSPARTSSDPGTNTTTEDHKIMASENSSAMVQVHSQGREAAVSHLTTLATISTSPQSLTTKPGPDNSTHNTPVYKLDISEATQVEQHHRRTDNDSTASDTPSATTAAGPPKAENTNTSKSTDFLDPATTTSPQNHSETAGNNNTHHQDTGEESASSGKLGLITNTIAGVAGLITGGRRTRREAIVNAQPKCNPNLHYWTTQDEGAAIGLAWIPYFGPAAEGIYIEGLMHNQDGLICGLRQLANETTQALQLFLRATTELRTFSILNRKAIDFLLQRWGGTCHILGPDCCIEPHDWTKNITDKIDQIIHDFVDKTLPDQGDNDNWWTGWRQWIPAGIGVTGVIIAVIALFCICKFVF

T5: SUDV GP on rVSV particles (Sudan virus (SUDV), UniProt Q66814 33-676)
T5 sequence: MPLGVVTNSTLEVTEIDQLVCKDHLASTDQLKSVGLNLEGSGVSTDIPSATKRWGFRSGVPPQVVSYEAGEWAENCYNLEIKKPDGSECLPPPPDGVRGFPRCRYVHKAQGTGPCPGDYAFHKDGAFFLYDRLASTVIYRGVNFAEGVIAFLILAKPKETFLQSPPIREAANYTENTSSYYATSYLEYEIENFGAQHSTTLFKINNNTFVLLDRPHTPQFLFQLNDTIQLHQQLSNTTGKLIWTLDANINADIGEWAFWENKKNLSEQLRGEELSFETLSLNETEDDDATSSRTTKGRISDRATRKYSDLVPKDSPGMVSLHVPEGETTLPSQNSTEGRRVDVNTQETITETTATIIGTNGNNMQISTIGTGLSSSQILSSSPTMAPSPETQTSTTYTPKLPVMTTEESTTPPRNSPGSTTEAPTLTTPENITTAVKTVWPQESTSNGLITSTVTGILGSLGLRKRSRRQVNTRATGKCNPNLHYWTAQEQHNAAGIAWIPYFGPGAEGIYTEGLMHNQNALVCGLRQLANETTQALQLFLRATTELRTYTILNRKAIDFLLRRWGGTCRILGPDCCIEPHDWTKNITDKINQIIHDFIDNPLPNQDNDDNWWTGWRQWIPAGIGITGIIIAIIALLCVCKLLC

B1: mAb PE-87 (antibody, V domains shown)
VH: QVQLVQSGVTLVQPGGSLRVSCAASGFTFSSYAMSWVRQAPGKGLEWVSAISGLGGSTYYADSVKGRFTISRDNSKNTLYLQMNSLRAEDTAVYYCAKDHRVWAAGYHFDYWGQGALVTVSS
VL: DIVLTQSPSTLSASVGDRVTITCRASQSISSWLAWYQQKPGEAPKLLISDASSLESGVPSRFSGSGSGTEFTLTISSLQPDDFATYYCQQYYSSPTFGGGTKVEIK
B2: mAb PE-24 (antibody, V domains shown)
VH: EVQLVESGGGLVQPGGSLRLSCAASGFTFSSYAMSWVRQAPGKGLEWVSEISGLGGSTYYADSAKGRFTISRDNSKSTLYLQMNSLRAEDTAVYYCAKDHRVWAPGYYFDHWGQGTLVTVSS
VL: DIVLTQSPSTLSASVGDRVTITCRASQSISSWLAWYQQKPGKAPKLLIYDASSLESGVPSRFSGSGSGTEFTLTISSLQPDDFATYFCQQYNRSPTFGGGTKVEIK
B3: mAb PE-47 (antibody, V domains shown)
VH: EVQLVESGGGLVKPGGSLRLSCAASGFTFSNAWMSWVRQAPGEGLEWVGRIKSKTDGGTIDYAAPVKGRFTISRDDSKNTVYLQMTSLKTEDTAVYYCTTYTEDMQYFDWLLRGGETFDYWGQGTLVTVSS
VL: DIQMTQSPSSLSASVGDRVTITCRASQYISTYLNWYQQKPGKAPKLLIYAAYNLQSGVPSRFSGSGSGTDFTLTISSLQPEDFATYYCQQSYSTPGRYTFGQGTKVEIK
B4: mAb PE-16 (antibody, V domains shown)
VH: QVQLVQSGAEVTKPGASVKVSCKASGYTFTTYYMHWVRQAPGQGLEWVGIINPSGGITRYAQKFQGRVTLTRDTSTTTVYMELSSLRSEDTAVYYCARDRYPVLFATDYGMDVWGQGTTVTVSS
VL: DIVMTQSPATLSLSPGERATLSCRASQSVSGYLAWYQQKPGQAPRLLIYDASNRATGIPARFSGSGSGTDFTLTISSLEPEDFAVYYCQQRSIWPPGVTFGGGTKVEIK
B5: mAb PE-05 (antibody, V domains shown)
VH: QVQLQESGGGLVKPGRSLRLSCTASGFTFGDYAMSWFRQAPGKGLEWVGFLRSKAYGGTAEYAASVKGRFTMSRDDSKSIAYLQMNSLKTEDTAVYFCTRDGFRGSSWGYSYYGMDVWGQGTTVTVSS
VL: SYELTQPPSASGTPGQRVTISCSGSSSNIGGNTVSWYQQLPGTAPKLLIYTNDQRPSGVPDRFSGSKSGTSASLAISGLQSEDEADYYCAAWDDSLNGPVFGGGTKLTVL

Key:
MARV GP = target: T1, MARV GP; test: ELISA, GP antigen coated
sGP = target: T2, sGP; test: ELISA, GP antigen coated
[1] = target: T3, RESTV GP on rVSV particles; test: cell-based or functional assay
[2] = target: T4, EBOV GP on rVSV particles; test: cell-based or functional assay
[3] = target: T5, SUDV GP on rVSV particles; test: cell-based or functional assay
[4] = target: BDBV GP on rVSV particles (Bundibugyo virus (BDBV)); test: cell-based or functional assay

| Binder | binding result (MARV GP) | binding result (sGP) | rVSV-GP neutralization IC50 [1] | rVSV-GP neutralization IC50 [2] | rVSV-GP neutralization IC50 [3] | rVSV-GP neutralization IC50 [4] |
| --- | --- | --- | --- | --- | --- | --- |
| B1 | no binding (tested: 0.2 µg/ml) | no binding (tested: 0.2 µg/ml) | 0.2 nM | 0.5 nM | 0.3 nM | 0.5 nM |
| B2 | no binding (tested: 0.2 µg/ml) | no binding (tested: 0.2 µg/ml) | 0.2 nM | 2 nM | 0.5 nM | 1 nM |
| B3 | no binding (tested: 0.2 µg/ml) | no binding (tested: 0.2 µg/ml) |  |  |  |  |
| B4 | no binding (tested: 0.2 µg/ml) | no binding (tested: 0.2 µg/ml) |  | 0.2 nM |  | 0.6 nM |
| B5 | no binding (tested: 0.2 µg/ml) |  | 22 nM | 9 nM | 34 nM | 4 nM |
